According to PMC3237570:

Molecular target: Bbox1 domain of MID1
Experiment: NMR titration; 1H-15N HSQC at 21°C, aqueous solution; 0.15 mM unlabeled alpha45 added to 0.3 mM 15N-labeled Bbox1 (Bbox1 to alpha45 1:0.5)

percent of Bbox1 bound to alpha45 (at 1:0.5): 40 to 50%
stoichiometry N: 1
Substance: alpha45 (45-amino acid region of the C-terminus of alpha4, residues Glu236 to Leu280) (from UniProt P78318 236-280) (domain or fragment)
